# Laboratory results published in patent US9289478B2, “Formulations of tumour-associated peptides binding to human leukocyte antigen (HLA) class I or class II molecules for vaccine” (IMMATICS BIOTECHNOLOGIES GMBH, priority 2008, dated 2016).
# Ends that are not written are not given here.
# Key:
# Assay type in all cases: physicochemical
# [1] = HPLC-assay for in-use stability after reconstitution with 4.2% sodium hydrogen carbonate solution (Example 3, peptides SEQ ID NO 11-23)
# Experimental: For clinical trials the above described formulation is dissolved in 700 μl sodium hydrogen carbonate (4.2%). To dissolve the lyophilisate, the vial and the diluent shall be shaken vigorously for 1 minute, check whether solution is clear, otherwise continue shaking for another minute until the solution is clear. Administration of 500 μL of the solution has to occur within 1 h after reconstitution. Dissolved lyophilisate may be stored aseptically at room temperature for up to 1 hour following reconstitution.
# (§1) Identity, purity and peptide content are determined by analytical RP-HPLC chromatography. Detection wavelength was 220 nm.
# [2] = Solubility of peptide in 90% acetic acid and in water
# Excerpt: Advantageously, the formulation according to the invention is suitable for stable formulations containing very hydrophobic peptides (for example IMA-CHI-001; SEQ ID NO: 23).
# [3] = HPLC-assay for stability of peptides in lyophilised formulation on storage for 3 months (Example 4); conditions: for stability of peptides in formulation, 1 M: 1 month; for stability of peptides in formulation, 2 M: 2 months; for stability of peptides in formulation, 3 M: 3 months
# Experimental: as §1
sequence,measurement,setting,value
SLWAGVVVL [CHI-001],"in-use stability, Peptide [%]","[1]; +Mannitol/Lutrol, 2h",100.0%
same,"in-use stability, Peptide [%]","[1]; +Mannitol/Lutrol, 6h",100.2%
same,"in-use stability, Peptide [%]","[1]; +Mannitol/Lutrol, Initial",100.0%
same,"in-use stability, Peptide [%]","[1]; no excipients, 2h",102.2%
same,"in-use stability, Peptide [%]","[1]; no excipients, 6h",90.6%
same,"in-use stability, Peptide [%]","[1]; no excipients, Initial",100.0%
same,solubility,[2]; 90% acetic acid,~2900 µg/mL
same,solubility in water,[2]; water,very insoluble
"AMTQLLAGV (listed as Homo sapiens) [TNC-001, Tenascin C peptide]","stability of peptides in formulation, 1 M",[3]; +5° C. +/- 3° C.,99.02 % of Initial
same,"stability of peptides in formulation, 2 M",[3]; +5° C. +/- 3° C.,98.10 % of Initial
same,"stability of peptides in formulation, 3 M",[3]; +5° C. +/- 3° C.,98.72 % of Initial
same,"stability of peptides in formulation, INITIAL",[3]; +5° C. +/- 3° C.,100.0%
same,"stability of peptides in formulation, 1 M",[3]; +25° C. +/- 2° C.,97.86 % of Initial
same,"stability of peptides in formulation, 2 M",[3]; +25° C. +/- 2° C.,96.80 % of Initial
same,"stability of peptides in formulation, 3 M",[3]; +25° C. +/- 2° C.,97.21 % of Initial
same,"stability of peptides in formulation, INITIAL",[3]; +25° C. +/- 2° C.,100.0%
same,"stability of peptides in formulation, 1 M",[3]; -20° C. +/- 5° C.,99.01 % of Initial
same,"stability of peptides in formulation, 2 M",[3]; -20° C. +/- 5° C.,97.61 % of Initial
same,"stability of peptides in formulation, 3 M",[3]; -20° C. +/- 5° C.,98.57 % of Initial
same,"stability of peptides in formulation, INITIAL",[3]; -20° C. +/- 5° C.,100.0%
same,"in-use stability, Peptide [%]","[1]; +Mannitol/Lutrol, 2h",100.5%
same,"in-use stability, Peptide [%]","[1]; +Mannitol/Lutrol, 4h",100.6%
same,"in-use stability, Peptide [%]","[1]; +Mannitol/Lutrol, 6h",100.2%
same,"in-use stability, Peptide [%]","[1]; +Mannitol/Lutrol, Initial",100.0%
same,"in-use stability, Peptide [%]","[1]; no excipients, 2h",100.0%
same,"in-use stability, Peptide [%]","[1]; no excipients, 4h",100.4%
same,"in-use stability, Peptide [%]","[1]; no excipients, 6h",95.7%
same,"in-use stability, Peptide [%]","[1]; no excipients, Initial",100.0%
"TFSYVDPVITSISPKYG (listed as Homo sapiens) [MET-005, Met proto-oncogene peptide]","stability of peptides in formulation, 1 M",[3]; +5° C. +/- 3° C.,99.06 % of Initial
same,"stability of peptides in formulation, 2 M",[3]; +5° C. +/- 3° C.,97.92 % of Initial
same,"stability of peptides in formulation, 3 M",[3]; +5° C. +/- 3° C.,98.59 % of Initial
same,"stability of peptides in formulation, INITIAL",[3]; +5° C. +/- 3° C.,100.0%
same,"stability of peptides in formulation, 1 M",[3]; +25° C. +/- 2° C.,97.49 % of Initial
same,"stability of peptides in formulation, 2 M",[3]; +25° C. +/- 2° C.,96.13 % of Initial
same,"stability of peptides in formulation, 3 M",[3]; +25° C. +/- 2° C.,97.21 % of Initial
same,"stability of peptides in formulation, INITIAL",[3]; +25° C. +/- 2° C.,100.0%
same,"stability of peptides in formulation, 1 M",[3]; -20° C. +/- 5° C.,99.14 % of Initial
same,"stability of peptides in formulation, 2 M",[3]; -20° C. +/- 5° C.,97.54 % of Initial
same,"stability of peptides in formulation, 3 M",[3]; -20° C. +/- 5° C.,99.00 % of Initial
same,"stability of peptides in formulation, INITIAL",[3]; -20° C. +/- 5° C.,100.0%
same,"in-use stability, Peptide [%]","[1]; +Mannitol/Lutrol, 2h",100.5%
same,"in-use stability, Peptide [%]","[1]; +Mannitol/Lutrol, 4h",100.7%
same,"in-use stability, Peptide [%]","[1]; +Mannitol/Lutrol, 6h",100.4%
same,"in-use stability, Peptide [%]","[1]; +Mannitol/Lutrol, Initial",100.0%
same,"in-use stability, Peptide [%]","[1]; no excipients, 2h",100.3%
same,"in-use stability, Peptide [%]","[1]; no excipients, 4h",100.7%
same,"in-use stability, Peptide [%]","[1]; no excipients, 6h",96.0%
same,"in-use stability, Peptide [%]","[1]; no excipients, Initial",100.0%
"TLGEFLKLDRERAKN (listed as Homo sapiens) [BIR-002, Baculoviral IAP repeat-containing 5 (survivin) peptide]","stability of peptides in formulation, 1 M",[3]; +5° C. +/- 3° C.,98.53 % of Initial
same,"stability of peptides in formulation, 2 M",[3]; +5° C. +/- 3° C.,97.28 % of Initial
same,"stability of peptides in formulation, 3 M",[3]; +5° C. +/- 3° C.,100.01 % of Initial
same,"stability of peptides in formulation, INITIAL",[3]; +5° C. +/- 3° C.,100.0%
same,"stability of peptides in formulation, 1 M",[3]; +25° C. +/- 2° C.,97.49 % of Initial
same,"stability of peptides in formulation, 2 M",[3]; +25° C. +/- 2° C.,96.24 % of Initial
same,"stability of peptides in formulation, 3 M",[3]; +25° C. +/- 2° C.,98.93 % of Initial
same,"stability of peptides in formulation, INITIAL",[3]; +25° C. +/- 2° C.,100.0%
same,"stability of peptides in formulation, 1 M",[3]; -20° C. +/- 5° C.,98.43 % of Initial
same,"stability of peptides in formulation, 2 M",[3]; -20° C. +/- 5° C.,96.98 % of Initial
same,"stability of peptides in formulation, 3 M",[3]; -20° C. +/- 5° C.,100.14 % of Initial
same,"stability of peptides in formulation, INITIAL",[3]; -20° C. +/- 5° C.,100.0%
same,"in-use stability, Peptide [%]","[1]; +Mannitol/Lutrol, 2h",100.8%
same,"in-use stability, Peptide [%]","[1]; +Mannitol/Lutrol, 4h",101.2%
same,"in-use stability, Peptide [%]","[1]; +Mannitol/Lutrol, 6h",100.9%
same,"in-use stability, Peptide [%]","[1]; +Mannitol/Lutrol, Initial",100.0%
same,"in-use stability, Peptide [%]","[1]; no excipients, 2h",100.6%
same,"in-use stability, Peptide [%]","[1]; no excipients, 4h",101.4%
same,"in-use stability, Peptide [%]","[1]; no excipients, 6h",96.2%
same,"in-use stability, Peptide [%]","[1]; no excipients, Initial",100.0%
"NLDTLMTYV (listed as Homo sapiens) [NLGN4X-001, Neuroligin 4, X-linked peptide]","stability of peptides in formulation, 1 M",[3]; +5° C. +/- 3° C.,99.12 % of Initial
same,"stability of peptides in formulation, 2 M",[3]; +5° C. +/- 3° C.,98.24 % of Initial
same,"stability of peptides in formulation, 3 M",[3]; +5° C. +/- 3° C.,98.84 % of Initial
same,"stability of peptides in formulation, INITIAL",[3]; +5° C. +/- 3° C.,100.0%
same,"stability of peptides in formulation, 1 M",[3]; +25° C. +/- 2° C.,97.90 % of Initial
same,"stability of peptides in formulation, 2 M",[3]; +25° C. +/- 2° C.,96.30 % of Initial
same,"stability of peptides in formulation, 3 M",[3]; +25° C. +/- 2° C.,96.41 % of Initial
same,"stability of peptides in formulation, INITIAL",[3]; +25° C. +/- 2° C.,100.0%
same,"stability of peptides in formulation, 1 M",[3]; -20° C. +/- 5° C.,99.05 % of Initial
same,"stability of peptides in formulation, 2 M",[3]; -20° C. +/- 5° C.,97.60 % of Initial
same,"stability of peptides in formulation, 3 M",[3]; -20° C. +/- 5° C.,98.62 % of Initial
same,"stability of peptides in formulation, INITIAL",[3]; -20° C. +/- 5° C.,100.0%
same,"in-use stability, Peptide [%]","[1]; +Mannitol/Lutrol, 2h",100.8%
same,"in-use stability, Peptide [%]","[1]; +Mannitol/Lutrol, 4h",100.9%
same,"in-use stability, Peptide [%]","[1]; +Mannitol/Lutrol, 6h",100.5%
same,"in-use stability, Peptide [%]","[1]; +Mannitol/Lutrol, Initial",100.0%
same,"in-use stability, Peptide [%]","[1]; no excipients, 2h",99.9%
same,"in-use stability, Peptide [%]","[1]; no excipients, 4h",100.5%
same,"in-use stability, Peptide [%]","[1]; no excipients, 6h",95.7%
same,"in-use stability, Peptide [%]","[1]; no excipients, Initial",100.0%
